Publication PMC7674511, “The Chaperone BAG6 Regulates Cellular Homeostasis between Autophagy and Apoptosis by Holding LC3B” (iScience, 2020)
No end group written: not given here.

Target: LC3B-I (UniProt Q9GZQ8 1-120)
Test: fluorescence polarisation; fluorescence anisotropy; peptide at 1 μM, LC3B-I or Pro-LC3B added from 0 to 50 μM; Kd by nonlinear curve fitting; three independent experiments
Conditions: both partners purified

Kd: 22.2 µM
B1: BAG6 LIR1 peptide (residues 124-143) (peptide)
peptide: VHDRNANSYVMVGTFNLPSD
modifications: also: FITC label, position not given here
notes: BAG6, 20-aa peptide encompassing the LIR1 motif (132-135 YVMV), residues 124-143; it has the same name there; also called wild-type BAG6 LIR-1 peptide; source: synthetic peptide
